In patent US20220204603A1 (PHARMABCINE, published 2022):

T1: biotinylated human Ang2 protein (human, UniProt O15123 19-496, limits assumed, biotinylated (sites not given))
T1 construct: also called hAng2
T1 sequence (looked up): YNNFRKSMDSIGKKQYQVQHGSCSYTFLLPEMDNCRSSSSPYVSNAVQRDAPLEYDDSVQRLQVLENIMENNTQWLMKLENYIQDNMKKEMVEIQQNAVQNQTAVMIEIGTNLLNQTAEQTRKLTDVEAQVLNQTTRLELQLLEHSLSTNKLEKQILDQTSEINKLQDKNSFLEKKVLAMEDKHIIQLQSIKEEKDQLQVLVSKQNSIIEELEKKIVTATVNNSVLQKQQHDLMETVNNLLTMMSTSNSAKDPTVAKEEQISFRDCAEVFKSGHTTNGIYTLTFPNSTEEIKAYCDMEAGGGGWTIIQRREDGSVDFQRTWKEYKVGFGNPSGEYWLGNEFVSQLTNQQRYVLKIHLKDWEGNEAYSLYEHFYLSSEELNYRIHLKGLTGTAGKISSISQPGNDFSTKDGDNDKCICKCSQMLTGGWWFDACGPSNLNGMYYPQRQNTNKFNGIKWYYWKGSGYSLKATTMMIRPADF

T2: His-tagged mouse Ang1 (sino, 50300-M07H) (mouse, UniProt O08538 20-498)
T2 construct: Bought protein; not shown: His tag
T2 sequence (looked up): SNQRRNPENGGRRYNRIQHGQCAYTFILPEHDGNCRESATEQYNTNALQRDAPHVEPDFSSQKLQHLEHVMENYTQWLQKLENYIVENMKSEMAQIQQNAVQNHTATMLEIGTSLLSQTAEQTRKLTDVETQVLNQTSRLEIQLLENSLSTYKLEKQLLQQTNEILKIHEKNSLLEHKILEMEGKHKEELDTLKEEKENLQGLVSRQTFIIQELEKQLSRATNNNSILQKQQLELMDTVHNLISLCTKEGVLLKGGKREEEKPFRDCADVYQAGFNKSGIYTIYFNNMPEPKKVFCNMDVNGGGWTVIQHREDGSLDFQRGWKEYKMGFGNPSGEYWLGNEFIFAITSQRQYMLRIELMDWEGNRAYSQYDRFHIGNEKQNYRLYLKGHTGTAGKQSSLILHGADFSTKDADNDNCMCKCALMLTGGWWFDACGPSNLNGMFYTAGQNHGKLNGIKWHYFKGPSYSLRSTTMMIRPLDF

T3: mouse Ang2 (construct not stated) (mouse, UniProt O35608 19-496, limits assumed)
T3 construct: also called mAng2
T3 sequence (looked up): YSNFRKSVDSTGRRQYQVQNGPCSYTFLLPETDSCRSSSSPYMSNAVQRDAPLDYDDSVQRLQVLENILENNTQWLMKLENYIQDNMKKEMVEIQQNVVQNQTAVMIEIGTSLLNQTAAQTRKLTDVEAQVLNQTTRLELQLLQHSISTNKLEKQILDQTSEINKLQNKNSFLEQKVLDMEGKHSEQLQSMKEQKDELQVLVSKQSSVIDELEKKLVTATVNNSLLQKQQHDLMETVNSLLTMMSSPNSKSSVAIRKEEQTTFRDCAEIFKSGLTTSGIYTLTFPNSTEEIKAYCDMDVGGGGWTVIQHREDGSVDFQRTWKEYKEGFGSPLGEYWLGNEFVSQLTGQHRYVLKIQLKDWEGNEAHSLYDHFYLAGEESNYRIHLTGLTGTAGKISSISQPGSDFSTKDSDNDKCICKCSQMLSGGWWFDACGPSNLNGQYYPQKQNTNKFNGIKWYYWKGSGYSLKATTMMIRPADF

B1: No. 3 anti-Ang2 antibody (IgG) (antibody, V domains shown)
VH: QMQLVQSGGGLVQPGRSLKLSCAASGFSFDDYAMHWVRQAPGKGLEWVATIKDDGSQTYYVDSVKGRFTISRDNAKSSLFLQMNSLRAEDTAVYYCTTEGLMNGLHFDMWGQGTMVTVSS
VL: LVLTQPPSVSGAPGQGVTISCTGSSSNIGAGYDVHWYQQFPGTAPKLLISGNNNRPSGLPDRFSGSKSGTSASLAITGLQAEDEADYYCQSYDSRLGVVFGGGTKLTVLG
notes: IgG form: VH cloned into Invivogen pfusess-hchg1 (heavy chain constant region), VL into Invivogen pfuse2ss-hclk (light chain constant region); Expressed in Expi293F, purified on Protein A; also called 1D10
B2: No. 41 anti-Ang2 antibody (IgG) (antibody, V domains shown)
VH: QVQLVESGGGLVQPGGSLRLSCEASGFAFGRYEMNWVRQAPGKGLEWIAYIDTGGGAKVYADSVKGRFTISRDDSKNSLYLQMNSLRAEDTAVYYCTTEGLMNGLHFDMWGQGTMITVSS
VL: DIQMTQSPSTLSASVGDRVAITCRASQAISTWLAWYQQKPGKAPKLLIYTASTLESGVPSRFSGSGSGTDFTLTINSLQPDDFATYYCQQLNSYPYTFGGGTKVEIKR
notes: IgG form: VH cloned into Invivogen pfusess-hchg1, VL into Invivogen pfuse2ss-hclk; also called 2B2
B3: No. 46 anti-Ang2 antibody (IgG) (antibody, V domains shown)
VH: QVQLVESGGGLVQPGRSLRLSCAASGFTFDDCAMHWVRQAPGKGLEWVSGISGNSKNVAYADSVKGRFSISRDDAKNSLYLQMNSLRAEDTAVYYCARDPAYSQFDYWGQGTLITVSS
VL: QSALTQPPSLSATPGQRVTISCSGSSSNVGGYPVNWYQQVPGAAPKLLMYTDYKRPSGVPDRFFGSKSGTSASLAISGLQSEDEADYYCATWDDNLNGYVFGTGTKVTVLG
notes: IgG form: VH cloned into Invivogen pfusess-hchg1, VL into Invivogen pfuse2ss-hclk; also called 3C6
B4: No. 8 anti-Ang2 antibody (IgG) (antibody, V domains shown)
VH: QVQLVESGGGLVKPGGSLRLSCAASGFTFSSYSMNWVRQAPGKGLEWVSSISASDGATYYADSVRGRFTISRDNSRSTLYLQMNSLRAEDTAVYYCAKILAGYSGPMGGMDVWGQGTTVTVSS
VL: DIQMTQSPSSLSASVGDRVTITCRASRDISNYLAWYQQKPGKAPKSLIYGASNLQSGVSSQFSGSGSGTDFTLTINSLQPEDSATYYCQQYYSYPLTFGGGTKVDIKR
notes: IgG form: VH cloned into Invivogen pfusess-hchg1, VL into Invivogen pfuse2ss-hclk; also called 3A10
B5: No. 4 anti-Ang2 antibody (IgG) (antibody, V domains shown)
VH: QVQLVESGAEVKRPGESLRISCKTSGYSFTSYWIHWVRQMPGKELEWMGSIYPGNSDTRYSPSFQGHVTISADSSSSTAYLQWSSLKASDTAMYYCTTEGLMNGLHFDMWGQGTMVTVSS
VL: DIVMTQTPLSLPVTPGEPASISCRSSQSLLHSLGDNYLDWYLQKPGQSPQLLIYLGSKRAAGVPDRFSGSGSGTDFTLKISRVEAEDVGVYYCMQSLQTPPYTFGQGTKLEIKR
notes: IgG form: VH cloned into Invivogen pfusess-hchg1, VL into Invivogen pfuse2ss-hclk; also called 2D8

Columns and labels:
[1] = molecular target: T1, biotinylated human Ang2 protein; test: competition ELISA: antibody preincubated with biotinylated hAng2, binding to coated integrin α5/β1
Procedure: (§1) 1 μg/ml (100 μl per well) of a human Ti32-Fc (R&D Systems, 313-TI) or mouse Tie2-Fc (R&D Systems, 762-T2-100) solution, an integrin α3/β1 solution (R&D systems, 2840-A3-050), or an integrin α5/β1 solution (R&D systems, 3230-A5-050) was added to a 96-well immunoplate (Nunc, US) and then allowed to stand overnight at 4° C. for adsorption. The next day, the plate was washed four times with PBS containing 0.05% Tween-20 (hereinafter, referred to as PBST), and 200 μl of a 2% BSA/PBST solution was added to each well and then allowed to stand at room temperature for 1 hour to perform blocking. Anti-Ang2 candidate antibodies were serially diluted 4-fold at a maximum of 1000 nM, and biotinylated human Ang2 protein was made to a final concentration of 100 ng/mL or 625 ng/mL, followed by previous binding at room temperature for 1 hour. […] The plate was washed three times with PBST, 100 μl of HRP-conjugated streptavidin (R&D Systems, DY998) diluted to 1:200 was added to allow a reaction to occur at room temperature for 1 hour, thereby inducing binding, and the plate was washed four times with PBST, followed by color development using 100 μl of a TMB substrate reagent. The color development reaction was stopped by adding 50 μl of 2N H₂SO₄, and a Sunrise microplate reader (TECAN, CH) was used to measure specific absorbance OD₄₅₀ (FIGS. 4 and 5).

[2] = molecular target: T2, His-tagged mouse Ang1 (sino, 50300-M07H); test: binding ELISA, His-tagged mouse Ang1 coated at 1 µg/ml, detection with HRP anti-human IgG(kappa) [panel 'mouse Ang1 binding ELISA']
Procedure: 1 μg/ml (100 μl per well) of a His-tagged human (R&D systems, 623-AN/CF) or mouse (sino, 50298-M07H) Ang2 solution or a His-tagged human (R&D systems, 923-AN/CF) or mouse (sino, 50300-M07H) Ang1 solution was added to a 96-well immunoplate (Nunc, US) and allowed to stand overnight at 4° C. for adsorption. The next day, the solution was washed three times with PBS containing 0.05% Tween-20 (hereinafter, referred to as PBST), and 200 μl of a 2% BSA/PBST solution was added to each well and then allowed to stand at room temperature for 2 hours to perform blocking. After washing three times with PBST, 100 μl of each test antibody solution was added to each well according to concentration to cause binding at room temperature for 1 hour, and then washing was performed three times with PBST, 100 μl of HRP-conjugated goat anti-human IgG(kappa) (bethyl lab #A80-115P) diluted to 1:2000 was added and allowed to react at room temperature for 1 hour, thereby inducing binding, and after washing three times with PBST, color development was performed using 100 μl of a TMB substrate reagent. The color development reaction was stopped by adding 50 μl of 2N H₂SO₄, and a Sunrise microplate reader (TECAN, CH) was used to measure specific absorbance OD₄₅₀₋₆₃₀ (FIG. 3).

[3] = molecular target: T3, mouse Ang2 (construct not stated); test: competition ELISA: antibody preincubated with mAng2, binding to coated mouse Tie2-Fc
[4] = molecular target: T1, biotinylated human Ang2 protein; test: competition ELISA: antibody preincubated with biotinylated hAng2, binding to coated human Tie2-Fc
Procedure: as §1

| Binder | IC50 [1] [nM] | binding result [2] | IC50 [3] [nM] | IC50 [4] [nM] |
| --- | --- | --- | --- | --- |
| B1 | 1.53 | no binding (tested: 2 mg/ml (unit as read in the legend)) | 5.02 | 0.491 |
| B2 | 1.49 | no binding (tested: 2 mg/ml (unit as read in the legend)) | 3.98 | 0.475 |
| B3 | 1.9 | no binding (tested: 2 mg/ml (unit as read in the legend)) | 5.25 | 0.337 |
| B4 | 1.89 | no binding (tested: 2 mg/ml (unit as read in the legend)) | 4.83 | 0.495 |
| B5 | 1.57 | no binding (tested: 2 mg/ml (unit as read in the legend)) | 4.54 | 0.462 |
